{"source": "the domain aggregation screens of Martell et al. (2025)", "experiment": "soluble fraction after stress (log2 fold change); higher = more stays soluble; pooled small domains, quantitative proteomics", "conditions": "stress: 75 degC"}
{"sequence": "HMIDHLPPQRAAVLAFLQRELVAGRSPSLAEIALAFGFASRNAAQKHVQALVADGLLEQATGRSRGLRLPG", "values": [{"measurement": "soluble fraction (log2)", "result": -2.17}]}
{"sequence": "HMIDIGSKIKKLRSKKSIEIGKKYTGAMLANELGISRSYLGDIESGRTVPNEIILGKIADIFDVDIYELIG", "values": [{"measurement": "soluble fraction (log2)", "result": -1.06}]}
{"sequence": "HMIDLPEAFIQQLKEAVDVGDVTGLRELLGQLRRRYPQQSALSDEAERLLREFDFERLAQLFEGLD", "values": [{"measurement": "soluble fraction (log2)", "result": -1.67}]}
{"sequence": "HMIDNFFTIRFNYSKINEVIRLLKEFNGEIFNKNYDKNEYIIEFSIPKKDAALLISKLKNITGLTIEQ", "values": [{"measurement": "soluble fraction (log2)", "result": -1}]}
{"sequence": "HMIDQIAEQLQQRLAVDTAFATIQRDYPDVIANKDIELLTAIKVNQKIAEGASRASAMLESAKEVYETL", "values": [{"measurement": "soluble fraction (log2)", "result": 0.196}]}
{"sequence": "HMIDRPLTLVEDYERFAGELAKITLRFMLDGRKRFNGRLAGFDEDGKIVLETSFGRFAFSFDEIDSARI", "values": [{"measurement": "soluble fraction (log2)", "result": -3.08}]}
{"sequence": "HMIDSVFASYRQVALDDELWDKVRNGAVLPKVELFEVMDGPVLFTYQSKIVAMYEPHPTKAGYIKPRKMFL", "values": [{"measurement": "soluble fraction (log2)", "result": -2.09}]}
{"sequence": "HMIDTTKILPGQEFKNMQELSVALTGQKMPAGKGYVLQQEKFKLYFSWKKITGTHKLIIDEIYEEPKT", "values": [{"measurement": "soluble fraction (log2)", "result": -3.23}]}
{"sequence": "HMIDYIKYTVDGKTYELINNWDGTWSRELEAPLVAGRYDLLLEISQNGLVTYIDSSDPRYEFYLDVI", "values": [{"measurement": "soluble fraction (log2)", "result": -3.02}]}
{"sequence": "HMIEESTVPDLKGKSQEDAIKLLEDANLKYQIVEEESKKIEAGYVISQETDANKKVNAGDTVIIHVST", "values": [{"measurement": "soluble fraction (log2)", "result": 0.645}]}
{"sequence": "HMIEFYTMQDMFYFKLTGDNTSRERREALGKILGIGYGNATQMVSRLNNYGISKEEFSKAIEEIEKQLEA", "values": [{"measurement": "soluble fraction (log2)", "result": -2.89}]}
{"sequence": "HMIEIKNLSFSYGKKKQSVFNDFSLTLDKGSVYGLLGKNGTGKSTLLYLMTGLLRPQAGQVLYKGVDVS", "values": [{"measurement": "soluble fraction (log2)", "result": 0.141}]}
{"sequence": "HMIEKVNDYVVRFANVNGTGSASANNLFALAIYRMGVPVTPKNIFPSNIQGLPTWFEVRVSGSGYLARRG", "values": [{"measurement": "soluble fraction (log2)", "result": 0.162}]}
{"sequence": "HMIELDRTNLLGVFGPKSRPYALLMLSNGEMIKISIGDQFFGWRVYGIDEKSIQVQNGTKQEILRIP", "values": [{"measurement": "soluble fraction (log2)", "result": -3.91}]}
{"sequence": "HMIENGILELKGKTGVAQTVLRPSGKVLIDDEIYDAVALTGYIEKADKVLVTKVEATQLYVEK", "values": [{"measurement": "soluble fraction (log2)", "result": -0.0378}]}
{"sequence": "HMIERLVVSPAAGVFTKKMSVENNTRIDVGHVLGHVGETEVRSPFAGILQNYIAVDGERLTAHQPIAWLRS", "values": [{"measurement": "soluble fraction (log2)", "result": -0.0936}]}
{"sequence": "HMIERVLRTEEHIEAFAGEEVEAKLFAPIDGKKTLRGILGGIEDGRVILTVGDTEYRIEHAKISRLTTVFD", "values": [{"measurement": "soluble fraction (log2)", "result": -0.881}]}
{"sequence": "HMIESVMVGIKELLGDTIDQKYEKYIRLGGIPSDEVDEFNSVFSAYEKVNGNHNGKKKYDYVMNNLPIIPV", "values": [{"measurement": "soluble fraction (log2)", "result": -0.574}]}
{"sequence": "HMIETIQVPRAFNDWHEQADKTKSVFEVYAEIEASENEKLIAWVRNNQNEFAKIWLGALIPELE", "values": [{"measurement": "soluble fraction (log2)", "result": -1.7}]}
{"sequence": "HMIGHIGSAVMLNAKLRPRLPLLHVLALTQSLGERLSAAEAQPEVYRWSDPGQSRVIAEFEGGRLTRWRLE", "values": [{"measurement": "soluble fraction (log2)", "result": -2.05}]}
{"sequence": "HMIGVIVDEVDPDSSLKSGDIITEVNREVILNIDDFVGLVEQIQKTGRSSLLLKILRDKKSLWVTIQFV", "values": [{"measurement": "soluble fraction (log2)", "result": 0.267}]}
{"sequence": "HMIHQIPVNVQKIRQIIGINLNENDYLNYLAKLGFVIDEGLIIVPSFRSDVKTQNDLAEEIARV", "values": [{"measurement": "soluble fraction (log2)", "result": -0.547}]}
{"sequence": "HMIINFDAIKLTTELNKYKRHKAIPNTFFDGTYTILDVRELYNDLTPKAQKIADELIEHYNVDVK", "values": [{"measurement": "soluble fraction (log2)", "result": -1.73}]}
{"sequence": "HMIINLGELLKMLEVNKYQDAMDALDSLIEEGGSLEKIESLHEIRQHTHAMNFREAERLLSILIESEGA", "values": [{"measurement": "soluble fraction (log2)", "result": -1.73}]}
{"sequence": "HMIISPKKLEYRQRIINALGDRKMSLNELSKAMGYKGITTKLSFTVDDMIKSGVIEKVMVGAYAKLHIP", "values": [{"measurement": "soluble fraction (log2)", "result": -2.33}]}
{"sequence": "HMIIVMKRNATETQIDHVVRWVESIGYRAHRSNGTEQTVVKAVGGERGGEELKYLAALSGVEKVVPIR", "values": [{"measurement": "soluble fraction (log2)", "result": -1.49}]}
{"sequence": "HMIKDSKAAYKILGVDENATNEEIKKAYRQLVINHHPDKVSHLGEDIQRAANEKLKQINAAYDEIKKQRGF", "values": [{"measurement": "soluble fraction (log2)", "result": -0.0128}]}
{"sequence": "HMIKEGDLVFIWNPKKGDSFLIKVQPGQSQGTHFGQIKHSEIMEHNYGEGIRTPKGQVYYLLRPTLGEFTR", "values": [{"measurement": "soluble fraction (log2)", "result": -1.4}]}
{"sequence": "HMIKEVGYEKFMQMTEEEDIGRVEIDQEENQITFTDKDETAIYKTGMVDDPDLTERLYDAGAEFS", "values": [{"measurement": "soluble fraction (log2)", "result": 0.0721}]}
{"sequence": "HMIKIDESTLSEDELKIFEILKIEDKNIENIAIESKILPGKLLATLMNMEMKKIVVQYPGKVFGLNRKLK", "values": [{"measurement": "soluble fraction (log2)", "result": -1.81}]}
{"sequence": "HMIKKAILPVAGLGTRFLPASKSIPKEMVTVVDRPAIEYVVREAVEAGIEQIILVTHSSKASIENYFDR", "values": [{"measurement": "soluble fraction (log2)", "result": -0.192}]}
{"sequence": "HMIKKLDIEPIIKSVVDDFNNIYKLKRGITISYLNDGKNKYFINGIENRIEQIIANLLDNSISFSEDNKDV", "values": [{"measurement": "soluble fraction (log2)", "result": 0.0165}]}
{"sequence": "HMIKLSTNENTALRLVMERGLVTESELKGLFDNPVAVMESLISKMIETNTHWIHSERSENGEWVYAWQ", "values": [{"measurement": "soluble fraction (log2)", "result": -2.01}]}
{"sequence": "HMIKNDIGKFIKLYRETHQWSQRELAEHLGVSQRNVSYYEKGERIPPADVLKKLSTLFDVPVDVLLGLK", "values": [{"measurement": "soluble fraction (log2)", "result": -1.18}]}
{"sequence": "HMIKRDLAFSEFIAEVKAGQVREVTIKGNSISGNLNDGREFNTYAPNDPNLVKTLTDQGVLIRAIPLE", "values": [{"measurement": "soluble fraction (log2)", "result": 0.0691}]}
{"sequence": "HMILNPQELGERIRKLRLKRNKTQSYFADMLYISSSYLALIESGKRVPNLDLLIHIAKFTDVTLDYLVFG", "values": [{"measurement": "soluble fraction (log2)", "result": -1.24}]}
{"sequence": "HMILVLKPGAPEDLKNELIHDIEKMGLRVHVSVGEGTTIIGLIGDTSKISKYTFSSYEIVSNVLRVT", "values": [{"measurement": "soluble fraction (log2)", "result": -0.188}]}
{"sequence": "HMILYDDEYKGPRYRYGLHSRPLSPGAVPKGFIIHSDRPHPDFRHGTLDYPVKLPDDRAANFELIFIGEFD", "values": [{"measurement": "soluble fraction (log2)", "result": -1.59}]}
{"sequence": "HMIMMTLGEKIRSIRKAKGMTQQELAEKLNTTKQTIGKYEKGIVTNLPLFRINELARALSTTPAYLTGW", "values": [{"measurement": "soluble fraction (log2)", "result": -1.46}]}
{"sequence": "HMIMPSDATEAKLLGVLGNEPLHVDEIRNQAELPIEKVSAALALMELKGMVRQVGGMNYVAVR", "values": [{"measurement": "soluble fraction (log2)", "result": -0.0915}]}
{"sequence": "HMIMQTTSDRINQRMRDLGLQHKDLVAATGASKGTVTNWINGVNNPTGKRLVQLAQALKTTSSWLLTGN", "values": [{"measurement": "soluble fraction (log2)", "result": -0.481}]}
{"sequence": "HMINDPSALGQRAFVDELLWMAGYVPEKIEIYQTLPNNSRVYRVKLDSVNGGFIFIRWDKKKKEHYV", "values": [{"measurement": "soluble fraction (log2)", "result": 0.106}]}
{"sequence": "HMINEEELLKIENIKRKYPDSKAALMPVLYFFQEKYGFISDDSIKEISQLLNISEVDIKGVVSFYEMFHEK", "values": [{"measurement": "soluble fraction (log2)", "result": -1.32}]}
{"sequence": "HMINEVVSLRDVPSFIGKAKRDVIRIAEENNLKIKINGNGYVKEQTPNPGNKYKSNQEIKVFLEPG", "values": [{"measurement": "soluble fraction (log2)", "result": -0.0743}]}
{"sequence": "HMINFSKNIISDTTSIKEAIEILNIISGRDNHILFVLNDKRQLIGTLSDGDVRRGMLASKTISQSVTEVM", "values": [{"measurement": "soluble fraction (log2)", "result": -0.402}]}
{"sequence": "HMINIDESIDESLSEDDAVLDLLERASASFTKAQEALLEGDLGRYQTLIEQADRLVAKALELLDEKN", "values": [{"measurement": "soluble fraction (log2)", "result": -0.808}]}
{"sequence": "HMINIQYSYNDGKETLHNLSPEVIAEKIMDDPNGYHIVWKQGMVGWVNANDIDDIAKLLRQKK", "values": [{"measurement": "soluble fraction (log2)", "result": -0.311}]}
{"sequence": "HMINKDNLIEEILKFINTKIADISSNNPLFDIVAKPYISKVVTNNVSKLDKALSLIADDKGMVDADGLLT", "values": [{"measurement": "soluble fraction (log2)", "result": -0.129}]}
{"sequence": "HMINLDGIGEKISRLRKEQGVTIRELSEYTGYSVGFLSNLETGKNSPTVESLQRVAEALRTDIIEILTK", "values": [{"measurement": "soluble fraction (log2)", "result": -1.2}]}
{"sequence": "HMINLNEVLANFQKSYPNLAGFKYDQGMDALVYEGNYIRLNGYMLSRINPTLFSMSPDDIFTYLKNGF", "values": [{"measurement": "soluble fraction (log2)", "result": -3.17}]}
{"sequence": "HMINRMGRLVEALSHMIANTKPGARLPSEPELARQLGVSRATLREAMRTFEAQGMIHRRQGAGTFVVH", "values": [{"measurement": "soluble fraction (log2)", "result": -1.27}]}
{"sequence": "HMINYSQKQLIAIQDELSKRFQALENESTKNNVTGFGVGLHYIDIDLIVNTPEKQKEFREKIMDSPAFRFN", "values": [{"measurement": "soluble fraction (log2)", "result": -0.893}]}
{"sequence": "HMINYYELLKLDMNAAHEEINDAIKLESEKNTIPEDQIRTMKSIFFNTEFKKEYDQRLMNFLLT", "values": [{"measurement": "soluble fraction (log2)", "result": -0.671}]}
{"sequence": "HMIPDAIDPDGRFKWRAGEAVVGFGRHAGEPLKKIAIENPEFLRWILKADFSTDVKKIASDALKGYFPEK", "values": [{"measurement": "soluble fraction (log2)", "result": -0.488}]}
